Assay results: patent US20230265179A1 (TWIST BIOSCIENCE, published 2023)

T1: CD40L (UniProt P29965 1-261, limits assumed)
T1 construct: whole, on cells; also called cytokine over-expressing Expi293 cells (CD40L)
T1 sequence (looked up): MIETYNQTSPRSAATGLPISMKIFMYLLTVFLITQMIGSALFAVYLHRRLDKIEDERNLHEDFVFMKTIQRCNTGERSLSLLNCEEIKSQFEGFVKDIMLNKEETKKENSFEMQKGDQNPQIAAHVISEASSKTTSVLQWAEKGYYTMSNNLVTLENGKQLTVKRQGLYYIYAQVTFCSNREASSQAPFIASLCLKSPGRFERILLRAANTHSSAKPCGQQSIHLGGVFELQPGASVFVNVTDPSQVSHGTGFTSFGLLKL

B1: CD40L-354 (antibody, V domains shown)
VH: EVQLLESGGGLVQPGGSLRLSCAASGFSFSSYAMAWVRQAPGKGLEWVSSISGSGGGGNTYYADSVKGRFTISRDNSKNTLYLQMNSLRAEDTAVYYCARHHERDYYGMDVWGQGTLVTVSS
VL: DIQMTQSPSSLSASVGDRVTITCRASQSIGEYLNWYQQKPGKAPKLLIYSASSLQNGVPSRFSGSGSGTDFTLTISSLQPEDFATYYCQQTYSFPLTFGGGTKVEIK
B2: CD40L-360 (antibody, V domains shown)
VH: EVQLLESGGGLVQPGGSLRLSCAASGFTFGRYAMSWVRQAPGKGLEWVSDISGSGGSTYYADSVKGRFTISRDNSKNTLYLQMNSLRAEDTAVYYCARDGFRWGRAEYFQHWGQGTLVTVSS
VL: DIQMTQSPSSLSASVGDRVTITCRASQTISSYLSWYQQKPGKAPKLLIYDASTLQSGVPSRFSGSGSGTDFTLTISSLQPEDFATYYCQQSYRIPLTFGGGTKVEIK
B3: CD40L-365 (antibody, V domains shown)
VH: EVQLLESGGGLVQPGGSLRLSCAASGFTFSYYAMTWVRQAPGKGLEWVSGISGSGGSSYYADSVKGRFTISRDNSKNTLYLQMNSLRAEDTAVYYCARSHDYDRQTFDYWGQGTLVTVSS
VL: DIQMTQSPSSLSASVGDRVTITCRASQSIATYLHWYQQKPGKAPKLLIYSASTLESGVPSRFSGSGSGTDFTLTISSLQPEDFATYYCQQSYRPPLTFGGGTKVEIK
B4: CD40L-364 (antibody, V domains shown)
VH: EVQLLESGGGLVQPGGSLRLSCAASGFTFSPYAMSWVRQAPGKGLEWVSSITGTGGSTYYADSVKGRFTISRDNSKNTLYLQMNSLRAEDTAVYYCARSWASEDFDWLPNFDFWGQGTLVTVSS
VL: DIQMTQSPSSLSASVGDRVTITCRVSQSISSYLHWYQQKPGKAPKLLIYAASSLQTGVPSRFSGSGSGTDFTLTISSLQPEDFATYYCQQSYTLPLTFGGGTKVEIK
B5: CD40L-359 (antibody, V domains shown)
VH: EVQLLESGGGLVQPGGSLRLSCAASGYTFSSYAMSWVRQAPGKGLEWVSGISGGGTSTYYADSVKGRFTISRDNSKNTLYLQMNSLRAEDTAVYYCARFGNHYDRTGYSDYWGQGTLVTVSS
VL: DIQMTQSPSSLSASVGDRVTITCRASQNIGGYLNWYQQKPGKAPKLLIYGASRLQSGVPSRFSGSGSGTDFTLTISSLQPEDFATYYCQQSYSTPFTFGGGTKVEIK
B6: CD40L-358 (antibody, V domains shown)
VH: EVQLLESGGGLVQPGGSLRLSCAASGFTFSTYAMNWVRQAPGKGLEWVSAISGSGGTTYYADSVKGRFTISRDNSKNTLYLQMNSLRAEDTAVYYCARGPNNWNYVSFDYWGQGTLVTVSS
VL: DIQMTQSPSSLSASVGDRVTITCRASQYIGTYLNWYQQKPGKAPKLLIYAAANLQSGVPSRFSGSGSGTDFTLTISSLQPEDFATYYCQQSYSIPLTFGGGTKVEIK
B7: CD40L-382 (antibody, V domains shown)
VH: EVQLLESGGGLVQPGGSLRLSCAASGFGFSSYAMSWVRQAPGKGLEWVSAISGGGGSIYYADSVKGRFTISRDNSKNTLYLQMNSLRAEDTAVYYCATDYGDYDRLNFDLWGQGTLVTVSS
VL: DIQMTQSPSSLSASVGDRVTITCRASQSIGTFLNWYQQKPGKAPKLLIYGTSNLQSGVPSRFSGSGSGTDFTLTISSLQPEDFATYYCQQGYRTPLTFGGGTKVEIK
B8: CD40L-362 (antibody, V domains shown)
VH: EVQLLESGGGLVQPGGSLRLSCAASGFTFTSYAMSWVRQAPGKGLEWVSGISGSGINTYYADSVKGRFTISRDNSRNTLYLQMNSLRAEDTAVYYCVRSSWSDVWGQGTLVTVSS
VL: DIQMTQSPSSLSASVGDRVTITCRASQNIINYLNWYQQKPGKAPKLLIYGASTLESGVPSRFSGSGSGTDFTLTISSLQPEDFATYYCQQSYSVPLTFGGGTKVEIK
B9: CD40L-366 (antibody, V domains shown)
VH: EVQLLESGGGLVQPGGSLRLSCAASGFGFSSYAMSWVRQAPGKGLEWVSAITGSGSTTYYADSVKGRFTISRDNSKNTLYLQMNSLRAEDTAVYYCARAHDYDSMLMDYWGQGTLVTVSS
VL: DIQMTQSPSSLSASVGDRVTITCRASQSVSRFLNWYQQKPGKAPKLLIYAASTLQPGVPSRFSGSGSGTDFTLTISSLQPEDFATYYCQQSYETPLTFGGGTKVEIK
B10: CD40L-380 (antibody, V domains shown)
VH: EVQLLESGGGLVQPGGSLRLSCAASGFGFSSYAMSWVRQAPGKGLEWVSAISGGGGSIYYADSVKGRFTISRDNSKNTLYLQMNSLRAEDTAVYYCARAHDYDSMLMDYWGQGTLVTVSS
VL: DIQMTQSPSSLSASVGDRVTITCRASQSVSRFLNWYQQKPGKAPKLLIYAASTLQPGVPSRFSGSGSGTDFTLTISSLQPEDFATYYCQQSYETPLTFGGGTKVEIK
B11: CD40L-381 (antibody, V domains shown)
VH: EVQLLESGGGLVQPGGSLRLSCAASGFTFSSYDMNWVRQAPGKGLEWVAAISGSGGTTYYADSVKGRFTISRDNSKNTLYLQMNSLRAEDTAVYYCARGVYESMTGTYGYVDWFDPWGQGTLVTVSS
VL: DIQMTQSPSSLSASVGDRVTITCRASQSIPTYLNWYQQKPGKAPKLLIYAAANLQSGVPSRFSGSGSGTDFTLTISSLQPEDFATYYCQQSYATPFTFGGGTKVEIK
B12: CD40L-418 (antibody, V domains shown)
VH: EVQLLESGGGLVQPGGSLRLSCAASGFTFGRYAMSWVRQAPGKGLEWVSDISGSGGSTYYADSVKGRFTISRDNSKNTLYLQMNSLRAEDTAVYYCARDGFRWGRAEYFQHWGQGTLVTVSS
VL: DIQMTQSPSSLSASVGDRVTITCRASESITTYLNWYQQKPGKAPKLLIYTASGLQSGVPSRFSGSGSGTDFTLTISSLQPEDFATYYCQQSYTVPITFGGGTKVEIK
B13: CD40L-396 (antibody, V domains shown)
VH: EVQLLESGGGLVQPGGSLRLSCAASGFSFSSYAMAWVRQAPGKGLEWVSSISGSGGGGNTYYADSVKGRFTISRDNSKNTLYLQMNSLRAEDTAVYYCARHHERDYYGMDVWGQGTLVTVSS
VL: DIQMTQSPSSLSASVGDRVTITCRASQRISRYLNWYQQKPGKAPKLLIYRASTLQSGVPSRFSGSGSGTDFTLTISSLQPEDFATYYCQQSHSSPLTFGGGTKVEIK
B14: CD40L-355 (antibody, V domains shown)
VH: EVQLLESGGGLVQPGGSLRLSCAASGFIFSNYDMSWVRQAPGKGLEWVSGISGSGGSTSYADSVKGRFTISRDNSKNTLYLQMNSLRAEDTAVYYCARHGGYNPYGLDYWGQGTLVTVSS
VL: DIQMTQSPFSLSASVGDRVTITCRASQNILTYLNWYQQKPGKAPKLLIYGASTLRSGVPSRFSGSGSGTDFTLTISSLQPEDFATYYCQQSYRLPLTFGGGTKVEIK
B15: CD40L-376 (antibody, V domains shown)
VH: EVQLLESGGGLVQPGGSLRLSCAASGFTFSSYAMSWVRQAPGKGLEWVSAISASGGTTYYADSVKGRFTISRDNSKNTLYLQMNSLRAEDTAVYYCARSHDYDRQTFDYWGQGTLVTVSS
VL: DIQMTQSPSSLSASVGDRVTITCRASQSISTFLSWYQQKPGKAPKLLIYATSTLESGVPSRFSGSGSGTDFTLTISSLQPEDFATYYCQQSYSTPLTFGGGTKVEIK
B16: CD40L-372 (antibody, V domains shown)
VH: EVQLLESGGGLVQPGGSLRLSCAASGFTFTSYAMTWVRQAPGKGLEWVSSITSSGGSTYYADSVKGRFTISRDNSKNTLYLQMNSLRAEDTAVYYCARAHDYDSMLMDYWGQGTLVTVSS
VL: DIQMTQSPSSLSASVGDRVTITCRASQSIRSYLNWYQQKPGKAPKLLIYATSSLHSGVPSRFSGSGSGTDFTLTISSMQPEDFATYYCQQSFSLPPTFGGGTKVEIK
B17: CD40L-383 (antibody, V domains shown)
VH: EVQLLESGGGLVQPGGSLRLSCAASGFTFSNYAMSWVRQAPGKGLEWVSAITGSGSTTYYADSVKGRFTISRDNSKNTLYLQMNSLRAEDTAVYYCARAHDYDSMLMDYWGQGTLVTVSS
VL: DIQMTQSPSSLSASVGDRVTITCRASQYINNYLNWYQQKPGKAPKLLIYASSTLQRGVPSRFSGSGSGTDFTLTISSLQPEDFATYYCQQSFSTPITFGGGTKVEIK
B18: CD40L-371 (antibody, V domains shown)
VH: EVQLLESGGGLVQPGGSLRLSCAASGFTSNIYAMSWVRQAPGKGLEWVSAISGSGFSTYYADSVKGRFTISRDNSKNTLYLQMNSLRAEDTAVYYCAKLAQNYGDPDAFDIWGQGTLVTVSS
VL: DIQMTQSPSSLSASVGDRVTITCRASQSISKYLNWYQQKPGKAPKLLIYAATSLESGVPSRFSGSGSGTDFTLTISSLQPEDFATYYCQQSYSTPLFTFGGGTKVEIK
B19: CD40L-363 (antibody, V domains shown)
VH: EVQLLESGGGLVQPGGSLRLSCAASGFTFSDYDMSWVRQAPGKGLEWVSGISGSGATTYYADSVKGRFTISRDNSKNTLYLQMNSLRAEDTAVYYCARDSSGSYYYPLDYWGQGTLVTVSS
VL: DIQMTQSPSSLSASVGDRVTITCRTSQSISSYANWYQQKPGKAPKLLIYGASRLESGVPSRFSGSGSGTDFTLTISSLQPEDFATYYCQQTYSTPWTFGGGTKVGIK
B20: CD40L-373 (antibody, V domains shown)
VH: EVQLLESGGGLVQPGGSLRLSCAASGFTFRTYAMGWVRQAPGKGLEWVSAISGSGGIAYYADSVKGRFTISRDNSKNTLYLQMNSLRAEDTAVYYCARHYYYDSSDAFDIWGQGTLVTISS
VL: DIQMTQSPSSLSASVGDRVTITCRGSQSISSFLNWYQQKPGKAPKLLIYAASKLHSGVPSRFSGSGSGTDFTLTISSLQPEDFATYYCQHSYSTPLTFGGGTKVEIK
B21: CD40L-404 (antibody, V domains shown)
VH: EVQLLESGGGLVQPGGSLRLSCAASGFTFRTYAMGWVRQAPGKGLEWVSAISGSGGIAYYADSVKGRFTISRDNSKNTLYLQMNSLRAEDTAVYYCARHYYYDSSDAFDIWGQGTLVTISS
VL: DIQMTQSPSSLSASVGDRVTITCRASQTISYYLNWYQQKPGKAPKLLIYDATSLQSGVPSRFSGSGSGTDFTLTISSLQPEDFATYYCQQTYSLPLTFGGGTKVEIK

target: T1, CD40L; assay: flow cytometry, 100 nM IgG, CD40L over-expressing Expi293 cells over parent Expi293 cells
Experimental: All incubations and washes were in buffer containing PBS+1% BSA. MFI Ratio is defined by the mean fluorescence intensity (MFI) of the cytokine over-expressing Expi293 cell over the Expi293 parent cell. […] EC50 was calculated in GraphPad Prism.

100 nM FACS (MFI Ratio)	Binder
6.9 MFI ratio	B1
15.4 MFI ratio	B2
4.6 MFI ratio	B3
6.8 MFI ratio	B4
5.1 MFI ratio	B5
4.2 MFI ratio	B6
10.7 MFI ratio	B7
1060 MFI ratio	B8
43 MFI ratio	B9
8.4 MFI ratio	B10
1.7 MFI ratio	B11
3.6 MFI ratio	B12
6.2 MFI ratio	B13
7.6 MFI ratio	B14
13.5 MFI ratio	B15
8.5 MFI ratio	B16
24.1 MFI ratio	B17
3.5 MFI ratio	B18
3 MFI ratio	B19
1.7 MFI ratio	B20
7.1 MFI ratio	B21
